Test results taken from the Immune Epitope Database (IEDB).

Experiments:
[1] = target: HLA-A*02:01; assay: IEDB peptide-MHC binding, purified MHC/competitive/fluorescence; ≥ and ≤ were set here for values at or beyond the usual limits of such assays; settings: source organism: Zaire ebolavirus
[2] = target: HLA-A*11:01; assay: as above
[3] = target: HLA-A*24:02; assay: as above
[4] = target: HLA-A*02:06; assay: IEDB peptide-MHC binding, purified MHC/competitive/radioactivity; filed as Kd, often an IC50 or EC50 that approximates it; ≥ and ≤ were set here for values at or beyond the usual limits of such assays
[5] = target: HLA-A*02:17; assay: as above
[6] = target: HLA-A*02:02; assay: as above; settings: source organism: Vaccinia virus WR
[7] = target: HLA-A*02:03; assay: as above
[8] = target: HLA-A*03:01; assay: as above; settings: source organism: Vaccinia virus WR
[9] = target: HLA-A*11:01; assay: as above; settings: source organism: Vaccinia virus WR
[10] = target: HLA-A*31:01; assay: as above; settings: source organism: Vaccinia virus WR
[11] = target: HLA-A*33:01; assay: as above; settings: source organism: Vaccinia virus WR
[12] = target: HLA-A*68:01; assay: as above; settings: source organism: Vaccinia virus WR
[13] = target: HLA-A*68:02; assay: as above; settings: source organism: Vaccinia virus WR
[14] = target: HLA-B*07:02; assay: as above
[15] = target: HLA-B*51:01; assay: as above
[16] = target: HLA-B*53:01; assay: as above
[17] = target: HLA-B*54:01; assay: as above
[18] = target: HLA-B*35:01; assay: as above
[19] = target: HLA-A*02:01; assay: as above
[20] = target: HLA-B*08:01; assay: as above; settings: source organism: Hepacivirus hominis
[21] = source organism: Zaire ebolavirus
[22] = source organism: Dengue virus 2 Jamaica/1409/1983
[23] = source organism: Vaccinia virus WR
[24] = source organism: Mammarenavirus guanaritoense
[25] = source organism: Dengue virus 3 Sri Lanka/1266/2000
[26] = source organism: Dengue virus 3 Martinique/1243/1999
[27] = source organism: Vaccinia virus
[28] = source organism: Hepacivirus hominis
[29] = source organism: Triticum aestivum
[30] = source organism: Dengue virus 1 Singapore/S275/1990
[31] = source organism: Mammarenavirus lassaense
[32] = source organism: SARS coronavirus Tor2

NVPGPHRTI
IC50 [1]: 16 µM
IC50 [2, 21]: 54.4 µM
IC50 [3, 21]: 2.2 µM

IILEFFLIV
Kd [4, 22]: 0.000384 µM
Kd [5, 22]: 0.0898 µM

VILFIMFMLI
Kd [6]: 0.722 µM
Kd [7, 23]: 0.769 µM
Kd [4, 23]: 1.41 µM
Kd [8]: 0.081 µM
Kd [9]: 0.353 µM
Kd [10]: 0.128 µM
Kd [11]: 0.514 µM
Kd [12]: 0.113 µM
Kd [13]: 1.08 µM
Kd [14, 23]: 5.48 µM
Kd [15, 23]: 7.57 µM
Kd [16, 23]: 1.7 µM
Kd [17, 23]: 0.804 µM

YIIRVTTEL
Kd [6]: 0.000856 µM
Kd [7, 23]: 0.0176 µM
Kd [4, 23]: 0.0181 µM
Kd [8]: ≥ 78 µM
Kd [9]: ≥ 77.9 µM
Kd [10]: ≥ 77.9 µM
Kd [11]: ≥ 77.7 µM
Kd [12]: ≥ 64.6 µM
Kd [13]: 0.147 µM
Kd [14, 23]: 0.521 µM
Kd [18, 23]: 14.6 µM
Kd [15, 23]: 14.6 µM
Kd [16, 23]: ≥ 36.7 µM
Kd [17, 23]: ≥ 78.1 µM

LPIFSEFVL
Kd [14, 24]: 0.217 µM
Kd [18, 24]: 0.00859 µM
Kd [15, 24]: 18.5 µM
Kd [16, 24]: 0.0558 µM
Kd [17, 24]: 0.491 µM

VPSVNEYHML
Kd [14, 23]: 1.21 µM
Kd [18, 23]: 4.41 µM
Kd [15, 23]: ≥ 52.2 µM
Kd [16, 23]: 2.17 µM
Kd [17, 23]: ≥ 69.9 µM

ILAGVSLLPV
Kd [19, 25]: 0.00465 µM
Kd [7, 26]: 0.00816 µM
Kd [4, 26]: 0.00159 µM
Kd [5, 25]: 1.68 µM

VTLNASQYA
IC50 ([2]; source organism: Vaccinia virus Copenhagen): ≥ 227 µM

GGKVFAPKQ
IC50 [2, 27]: ≥ 244 µM
IC50 [3, 27]: ≥ 2250 µM

RPALVFDIT
Kd [20]: 2.91 µM
Kd [18, 28]: 2.08 µM
Kd [15, 28]: ≥ 30.7 µM
Kd [16, 28]: ≥ 50.2 µM
Kd [17, 28]: 0.0954 µM

LPYPQPQPF
Kd [14, 29]: 0.0693 µM
Kd [18, 29]: 0.00253 µM
Kd [15, 29]: 0.00285 µM
Kd [16, 29]: 0.0161 µM
Kd [17, 29]: 0.742 µM

LDGQQFYWP
IC50 [2, 21]: ≥ 150 µM
IC50 [3, 21]: ≥ 210 µM

MVIENGILKK
Kd [19, 23]: ≥ 69.4 µM
Kd [6]: ≥ 70 µM
Kd [7, 23]: ≥ 70.4 µM
Kd [4, 23]: ≥ 69.8 µM
Kd [8]: 0.0383 µM
Kd [9]: 0.0123 µM
Kd [10]: 4.86 µM
Kd [11]: ≥ 35.1 µM
Kd [12]: 0.0149 µM
Kd [13]: 11.2 µM
Kd [14, 23]: ≥ 69.6 µM
Kd [18, 23]: ≥ 30.3 µM
Kd [15, 23]: ≥ 69.6 µM
Kd [16, 23]: ≥ 69.9 µM
Kd [17, 23]: ≥ 69.9 µM

LPHLCLDYKV
Kd [14, 23]: 8.45 µM
Kd [18, 23]: 10.1 µM
Kd [15, 23]: 0.36 µM
Kd [16, 23]: 1.08 µM
Kd [17, 23]: 0.00499 µM

SVLLWMASV
Kd [19, 30]: 0.00633 µM
Kd [4, 30]: 0.0157 µM
Kd [5, 30]: 0.0209 µM

ILWENNIKL
Kd ([5]; source organism: Dengue virus 3 China/80-2/1980): 0.0911 µM

QLWATLLSL
Kd [19, 30]: 0.00116 µM
Kd [5, 30]: 0.0506 µM

YPSMFEKHI
Kd [14, 31]: 16.3 µM
Kd [18, 31]: 0.898 µM
Kd [15, 31]: 0.525 µM
Kd [16, 31]: 0.228 µM
Kd [17, 31]: ≥ 20.5 µM

TPLVQPVGAL
Kd [14, 32]: 0.0869 µM
Kd [18, 32]: 5.27 µM
Kd [15, 32]: 2.34 µM
Kd [16, 32]: 1.72 µM
Kd [17, 32]: 0.494 µM
